The series deals with the molecule itself. As to the kind of experiment: native gel or EMSA; purified 14-3-3 isoforms (14 μM per monomer) without or with PKA (2 μM) in 50 mM Hepes-NaOH pH 7.3, 10 mM NaCl, 4 mM MgCl2, 60 μM ATP, 2 h at 30°C; non-denaturing 15% gel, pH 8.6; dimer and monomer regions of the gel.

B1: untagged human 14-3-3σ devoid of the C-terminal flexible peptide (residues 232-248) (domain or fragment, UniProt P31947 1-231, looked up)
chain: MERASLIQKAKLAEQAERYEDMAAFMKGAVEKGEELSCEERNLLSVAYKNVVGGQRAAWRVLSSIEQKSNEEGSEEKGPEVREYREKVETELQGVCDTVLGLLDSHLIKEAGDAESRVFYLKMKGDYYRYLAEVATGDDKKRIIDSARSAYQEAMDISKKEMPPTNPIRLGLALNFSVFHYEIANSPEEAISLAKTTFDEAMADLHTLSEDSYKDSTLIMQLLRDNLTLWT
notes: human 14-3-3 protein sigma, Uniprot P31947, residues 1-231 out of 248; also called 14-3-3σΔC; σΔC; source: purified (ammonium sulfate fractionation, anion-exchange and gel-filtration chromatography); also E. coli BL21(DE3), co-expressed with Tau and PKA, in lysate
With B1, the binding result was “binds”.

B2: full-length human 14-3-3γ (natural protein, UniProt P61981 1-247, looked up)
chain: MVDREQLVQKARLAEQAERYDDMAAAMKNVTELNEPLSNEERNLLSVAYKNVVGARRSSWRVISSIEQKTSADGNEKKIEMVRAYREKIEKELEAVCQDVLSLLDNYLIKNCSETQYESKVFYLKMKGDYYRYLAEVATGEKRATVVESSEKAYSEAHEISKEHMQPTHPIRLGLALNYSVFYYEIQNAPEQACHLAKTAFDDAIAELDTLNEDSYKDSTLIMQLLRDNLTLWTSDQQDDDGGEGNN
notes: human 14-3-3 protein gamma, Uniprot P61981, full length
For the protein B2, the binding result was “binds”.

These data come from paper PMC5456370, “Bacterial co-expression of human Tau protein with protein kinase A and 14-3-3 for studies of 14-3-3/phospho-Tau interaction” (PLoS ONE, 2017).
